The values below come from US20140289906A1, “Compositions Having Dicamba Decarboxylase Activity and Methods of Use” (priority 2013, published 2014).

Data set [1] can be described thus: GC/MS detection of 2,5-dichloro anisole (2,5-DCA), toluene trapping or head-space. Type of data set: biochemical. Conditions: purified protein, dicamba, toluene capturing. The procedure:
Alternatively, dicamba decarboxylase activity can be monitored by measuring decarboxylation products other than CO2 using product detection methods. The decarboxylation product of dicamba, 2,5-dichloro anisole or 2,5-DCA (FIG. 1C), is a volatile compound with a flash point of 21° C. To capture this volatile compound for detection, 140 ul of toluene solution is added on top of 1 ml reaction mixture to form a trapping layer in a 1.5 ml eppendorf tube. […] The reaction is kept still at room temperature overnight before being vortex mixed and centrifuged at 14,000 rpm for 15 minutes. The top toluene phase is carefully removed using a micropipette and transferred into a 12×32 mm polypropylene vial (Vial 11 mm) from MicroLiter Analytical Supplies, Inc. (catalog number 11-5300-100). The vial is sealed with Crimp seal (11 mm with FEP/Nat Rubber) from MicroLiter Analytical Supplies, Inc. (catalog number 11-0020A) using a E-Z Crimper™ 11 mm from Wheaton Inc. 1 ul of the toluene mixture is taken from the sealed vials and injected in splitless mode into a GC/MS system for sample analysis (Agilent GC/MS system with a 6890A GC, a 5973N MSD and a CTC CombiPAL auto-sampler or with a 7890A GC, a 5975C MSD and an Agilent GC Sampler 80 auto-sampler). The GC parameters are: Agilent DB-5MS column (30 m length, 0.25 mm diameter, 0.25 um film) or equivalent; The GC inlet temperature, 250° C.; Carry gas, helium in constant flow mode (1.2 mL/min); The GC oven temperature program, initial temperature at 70° C. for 1 min, ramping to 200° C. at 15° C./min, and then ramping to 250° C. at 30° C./min. MS data acquisition is done in SIM (selected ion monitoring) mode, monitoring the positive ion at M/Z 176 for the molecular ion of […]. The solvent delay for MS acquisition is set at 4 min. Another method for detection of 2,5-DCA is a head-space GC/MS method. Briefly, reaction mixtures in 500 ul reaction volume are prepared in 1.5 ml 12×32 mm glass vials (Microliter Analytical Supplies, Cat#11-1200) for head space analysis. Glass vials are sealed with magnetic cap from MicroLiter Analytical Supplies, Inc. (catalog number 11-0030AT) using a E-Z Crimper™ 11 mm from Wheaton Industries Inc. The reaction is carried out at room temperature for various amount of time and stopped by heating at 95° C. for 5 min. The reaction vial is transferred to a agitator for incubation at 80° C. for 5 min at 500 rpm. With a syringe preheated at 80° C., 1000 uL of head space is injected with sample fill speed at 100 uL/sec. GC/MS parameters for headspace analysis are the same as for liquid sample analysis.

Data set [2] can be described thus: 14C assay: 14CO2 capture from [14C]-carboxyl-labeled dicamba with IPTG-induced recombinant E. coli cells. The settings on record: dicamba decarboxylation activity.
Data set [3] can be described thus: GC/MS detection of 2,5-dichloro phenol (2,5-DCP); kinetic determination. The settings on record: purified protein, dicamba. In kind it is biochemical.
Data set [4] can be described thus: 14C assay: 14CO2 capture from [14C]-carboxyl-labeled dicamba with purified protein. Type of data set: biochemical.
Data set [5] can be described thus: Dicamba decarboxylation activity of computationally designed protein variants and parents (Tables 4, 5). The settings on record: native proteins and designed variants; assay not specified.
Data set [6] can be described thus: LC-MS/MS detection of 4-chloro-3-methoxy phenol. In kind it is biochemical. Conditions: purified protein, dicamba.
A short description of data set [7]: Enzyme kinetic characterization (kcat, KM, kcat/KM) of dicamba decarboxylase variants (Table 9).

B1: 121 (protein)
chain: MAIIDCHGHYTTTPKGVEDYRNAQKAAVAKDPSFKGEKGQVVVSDDEIRESIENNQLKMQRERGTDLTIFSPRWDAGGHHIGNEYTSQFWTEHQNDLIRRVCDLFPKNFAPVAQLPQSPGVDPAKSVPEIVRTVEQMGFIGINLNPDPSGGYWKDTSLADRAFYPIYEKMVEYDIPAMIHPRLACNACFHTGLSVGLGADTTGFQQLIMSDVFKDFPSLKIIIPHGGGAVPYHWGRFRGLMQDQGYAPLEESALKNIYFDTCVYHQRGIDLLLDIVPTQNILFASEMIGAVRGIDPETGHNFDDTKRYIDNNTALNAEEKAMIFEGNARRVFSRLKTD
modifications: Dicamba decarboxylase variant clone DC.12.014
In the case of B1, the “2,5-DCA product detected” value in data set [1] is “detected”. Besides, the “Enzymatic Detection level” value in data set [2] was “High”. The “2,5-DCP product detected” value in data set [3] is on record as “not detected”. The CO2 product detected result in data set [4] is given as “not detected”. Further, the “dicamba decarboxylase activity (statement in the description)” value (from here on “dicamba decarboxylase activity”) in data set [5] is “have dicamba decarboxylase activity”. Also, the “4-chloro-3-methoxy phenol product detected” value in data set [6] is given as “not detected”.

B2: 119 (protein)
chain: MAKKPRIDMHSHFFPRISEQEAAKFDANHAPWLQVSAKGDTGSIMMGKNNFQPVYQALWDPAFRIEEMDAQGVDVQVTCATPVMFGYTWEANKAAQWAERMNDFALEFAAHNPQRIKVLAQVPLQDLDLACKEASRAVAAGHLGIQIGNHLGDKDLDDATLEAFLTHCANEDIPILVHGWDMMGGQRMKKWGLYWLVAHHAEVQLAILSLILSGAFERIPKSLKICFSHGGGSFAFTLGWVDEAWRHVDIVREDCPRPPSEYVDRFFVDSVGNPGALELLVSVMGEDRVMLGSDYPLTTGEQKIGGLVLSSNLGESAKDKIISGNASKFFNINV
modifications: Dicamba decarboxylase variant cloneDC.5.034
Turning to B2, the “2,5-DCA product detected” value in data set [1] was “detected”. For the same molecule, in data set [2], the “Enzymatic Detection level” value is listed as “High”. In data set [3], the “2,5-DCP product detected” value is given as “not detected”. Further, the CO2 product detected result in data set [4] is given as “not detected”. In addition, the “dicamba decarboxylase activity” value in data set [5] is “have dicamba decarboxylase activity”. For the same molecule, the “4-chloro-3-methoxy phenol product detected” value in data set [6] is given as “not detected”.

B3: 123 (protein)
chain: MAQGKVALEEHFAIPETLQDSAGFVPGDYWKELQHRLLDIQDTRLKLMDAHGIETMILSLAAPAVQAIPDRRKAIEIARRANDVLAEECAKRPDRFLAFAALPLQDPDAATEELQRCVNDLGFVGALVNGFSQEGDGQTPLYYDLPQYRPFWGEVEKLDVPFYLHPRNPLPQDSRIYDGHPWLLGPTWAFAQETAVHALRLMASGLFDEHPRLNIILGHMGEGLPYMMWRIDHRVAWVKLPPRYPAKRRFMDYFNENFHITTSGNFRTQTLIDAILEIGADRILFSTDWPFENIDHASDWFNATSIAEADRVKIGRTNARRLFKLDGA
modifications: Dicamba decarboxylase variant clone S03902153
Take B3: the “Enzymatic Detection level” value in data set [2] was “High”. For the same molecule, the “protein kinetic activity (substrate concentration versus reaction velocity) over SEQ ID NO:109” value in data set [7] (FIG. 6) is given as “improvement”.

B4: 126 (protein)
chain: MAQGKVALEEHFAIPETLQDSAGFVPGDYWKELQHRLLDIQDTRLKLMDAHGIETMILSLAAPAVQAIPDRRKAIEIARRANDFLAEECAKRPDRFLAFAALPLQDPDAATEELQRCVNDLGFVGALVNGFSQEGDGQTPLYYDLPQYRPFWGEVEKLDVPFYLHPRNPLPQDSRIYDGHPWLLGPTWAFAQETAVHALRLMASGLFDEHPRLNIILGHMGEGLPYMMYRIDHRIAWVKLPPRYPAKRRFMDYFNENFHITTSGNFRTQTLIDAILEIGADRILFSTDWPFENIDHAADWFNATSIAEADRVKIGRTNARRLFKLDGA
modifications: Dicamba decarboxylase variant clone S03970792
On to B4, for which the “Enzymatic Detection level” value in data set [2] is given as “High”. Besides, the kcat – broadly, the maximal rate divided by the concentration of active sites – in data set [7] (substrate dicamba, purified protein) amounted to 0.03967 s⁻¹.

B5: 120 (protein)
chain: MAIIDCHGHYTTTPKGVETYRNAQKAAVAKDPSFKYEKGQVVVSDDEIRESIENNQLKMQRERGTDLTIFSPRSTAGGHHIGNEYTSQFWTEHQNDLIRRVCDLFPKNFAPVAQLPQSPGVDPAKSVPEIVRTVEQMGFIGINLNPDPSGGYWKDTSLADRAFYPIYEKMVEYDIPAMIHPRNACNDCFHTTGSHALGADTTGFQQLIMSDVFKDFPSLKIIIPHGGGAVPYHWGRFRGLMQDQGYAPLEESALKNIYFDTCVYHQRGIDLLLDIVPTQNILFASEMIGAVRGIDAETGHNFDDTKRYIDNNTALNAEEKAMIFEGNARRVFSRLKTD
modifications: Dicamba decarboxylase variant clone DC.12.002
With B5, in data set [1], the “2,5-DCA product detected” value is “detected”. Besides, the “Enzymatic Detection level” value in data set [2] is reported as “High”. The “2,5-DCP product detected” value in data set [3] is listed as “not detected”. Besides, the CO2 product detected entry in data set [4] was “not detected”. Besides, the “dicamba decarboxylase activity” value in data set [5] is given as “have dicamba decarboxylase activity”. In data set [6], the “4-chloro-3-methoxy phenol product detected” value is reported as “not detected”.

B6: 122 (protein)
chain: MAIIDCHGHYTTTPKGVEDYRNAQKAAVAKDPSFKGEKGQVVVSDDEIRESIENNQLKMQRERGTDLTIFSPRSTAGGHHIGNEYTSQFWTEHQNDLIRRVCDLFPKNFAPVAQLPQSPGVDPAKSVPEIVRTVEQMGFIGINLNPDPSGGYWKDTSLADRAFYPIYEKMVEYDIPAMIHPRNACNDCFHTTGSHALGADTTGFQQLIMSDVFKDFPSLKIIIPHGGGAVPYHWGRFRGLMQDQGYAPLEESALKNIYFDTCVYHQRGIDLLLDIVPTQNILFASDMIGAVRGIDPETGHNFDDTKRYIDNNTALNAEEKAMIFEGNARRVFSRLKTD
modifications: Dicamba decarboxylase variant clone DC.12.103
Turning to B6, in data set [1], the “2,5-DCA product detected” value is “detected”. For the same molecule, the “Enzymatic Detection level” value in data set [2] was “High”. Also, in data set [3], the “2,5-DCP product detected” value is “not detected”. For the same molecule, in data set [4], the CO2 product detected result is reported as “not detected”. For the same molecule, in data set [5], the “dicamba decarboxylase activity” value was “have dicamba decarboxylase activity”. In addition, the “4-chloro-3-methoxy phenol product detected” value in data set [6] is “not detected”.
